Molecular target: FLRT^LRR (SPR test of FLRT^LRR-FLRT^LRR binding)
Assay: SPR

FLRT^LRR (SPR test of FLRT^LRR-FLRT^LRR binding)
Kd: > 100 µM

From PMC4210639
